The values that follow come from US20200087363A1 (IMMATICS BIOTECHNOLOGIES, published 2020).

In this assay the target is T1, HLA-B*44:05 (human).
T1 construct: also called peptide-receptive MHC class I molecule
Description: UV peptide exchange, anti-b2m ELISA. In outline:
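Peptide-receptive HLA-B*44:05 monomers after UV-induced exchange were diluted 100-fold and captured on streptavidin-coated plates for 1 h at 37 °C. Bound complexes were detected with 2 µg/ml HRP-anti-β2m (1 h, 37 °C) and TMB, read at 450 nm. β2m signal reflects peptide-stabilized complex yield.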
(In general: ELISA stands for enzyme-linked immunosorbent assay.)

Bounds are passed on as bounds.

The molecule DEIFTNDRRW registered a peptide exchange yield of 20 to 50%.

On to RELGFTEATGW, for which the peptide exchange yield is above 75%.

Molecule REKDLPNYNW had a peptide exchange yield above 75%.

The molecule SEHLFGTSY gave a peptide exchange yield of 50 to 75%.

For FELECPVKY, the peptide exchange yield was 50 to 75%.

Turning to DELSVGRY, the peptide exchange yield lay in the range of 20 to 50%.

Turning to IEYENQKRL, the peptide exchange yield lay within 20 to 50%.

The molecule KEVASNSEL gave a peptide exchange yield of 50 to 75%.

Molecule AETIFIVRL returned a peptide exchange yield of 20 to 50%.

As for KEFGIGDLVW, the peptide exchange yield was above 75%.

Take EEWEWIQKL: the peptide exchange yield was above 75%.

Turning to TEFELLHQV, the peptide exchange yield lay within 50 to 75%.

In turn, AECILSKRL came in with a peptide exchange yield of 50 to 75%.

Molecule DQVTVFLHF displayed a peptide exchange yield of 10 to 20%.

As to VEEEISRHY, the peptide exchange yield lay within 20 to 50%.

In turn, SETAVVNVTY came in with a peptide exchange yield above 75%.

Molecule SEADWLRFW gave a peptide exchange yield above 75%.

Molecule SESSSFLKV had a peptide exchange yield of 50 to 75%.

KEWEREKAVSL: the peptide exchange yield is 50 to 75%.

With SEPQITVNF, the peptide exchange yield was 50 to 75%.

For the molecule SDDLRNVTW, the peptide exchange yield is above 75%.

As for MESAKETRY, the peptide exchange yield is 50 to 75%.

In turn, YEQLLKVVTW had a peptide exchange yield above 75%.

As for GEPVTQPGSLL, the peptide exchange yield is 50 to 75%.

For the molecule SQYPHTHTF, the peptide exchange yield was in the range of 50 to 75%.

KELEATKQYL had a peptide exchange yield of 50 to 75%.

AEHPDFSPCSF had a peptide exchange yield of 50 to 75%.

Molecule QELSSIRQF had a peptide exchange yield of 50 to 75%.

In turn, TENPKKFKI registered a peptide exchange yield of 50 to 75%.

AEKNRRDAETW: the peptide exchange yield was above 75%.

Regarding AENPLNIFY, the peptide exchange yield was above 75%.

In the case of HENGVLTKF, the peptide exchange yield was 20 to 50%.

Consider EGEDAHLTQY, for which the peptide exchange yield lay in the range of 20 to 50%.

The molecule EEINQGGRKY gave a peptide exchange yield of 50 to 75%.

With SEGTLPYSY, the peptide exchange yield was in the range of 20 to 50%.

Take QEDEQLLLRF: the peptide exchange yield fell in the range of 50 to 75%.

Molecule EEFCFSVRF registered a peptide exchange yield of 50 to 75%.

Molecule GEDAHLTQY showed a peptide exchange yield of 20 to 50%.

As for AAEPLVGQRW, the peptide exchange yield was 20 to 50%.

As for HELALRQTV, the peptide exchange yield was above 75%.

As to RRHPSFKRF, the peptide exchange yield is 10 to 20%.

For the molecule RLWPEPENW, the peptide exchange yield was in the range of 20 to 50%.

SEQHSLPVF gave a peptide exchange yield of 50 to 75%.

AEPPILYSEY showed a peptide exchange yield of 20 to 50%.

In turn, AERIMFSDL gave a peptide exchange yield above 75%.

EEPKIDFRVY showed a peptide exchange yield of 50 to 75%.

On to REYEYDLKW, for which the peptide exchange yield was above 75%.

HEIPQESL: the peptide exchange yield lay in the range of 10 to 20%.

Molecule DEYLIPQQGFF showed a peptide exchange yield of 20 to 50%.

In the case of REESDWHYL, the peptide exchange yield was 50 to 75%.

Consider AEQEIMKKV, for which the peptide exchange yield is above 75%.

With TEFQQIINL, the peptide exchange yield was above 75%.

Turning to RELLDFSSW, the peptide exchange yield is above 75%.

Consider SEYQDGKEF, for which the peptide exchange yield lay in the range of 20 to 50%.

As to GEQPPEGQW, the peptide exchange yield lay in the range of 50 to 75%.

For TEHFLKKFF, the peptide exchange yield lay in the range of 50 to 75%.

In the case of VEFPATRSL, the peptide exchange yield fell in the range of 50 to 75%.

REVSVVDIL came in with a peptide exchange yield above 75%.

For DEIDKLTGY, the peptide exchange yield lay within 20 to 50%.

In the case of AEVQIARKL, the peptide exchange yield is 50 to 75%.

Consider QELEQEVISL, for which the peptide exchange yield lay in the range of 50 to 75%.

In the case of KQTEATMTF, the peptide exchange yield is 20 to 50%.

Molecule MEQQSQEY had a peptide exchange yield of 50 to 75%.

The molecule AENPLNIFYI gave a peptide exchange yield of 50 to 75%.

On to EMREERKF, for which the peptide exchange yield is 20 to 50%.

As to YEWEPFAEV, the peptide exchange yield lay in the range of 10 to 20%.

The molecule DEQLLLRF returned a peptide exchange yield of 20 to 50%.
